The results in this text go back to patent publication EP4814019A1 (Zhejiang University, dated 2026).

B1: NY-ESO-1-VHH-1 (VHH)
VHH: QVQLQESGGGLVQAGGSLRLSCAASGTIFHQIDMGWYRQAPGKERELVAAIGTGSSTYYADSVKGRFTISRDNAKNTVYLQMNSLKPEDTAVYYCAAWHYYWGQGTQVTVSS
notes: Synthetic nanobody from a yeast display library
B2: NY-ESO-1-VHH-5 (VHH)
VHH: QVQLQESGGGLVQAGGSLRLSCAASGNISAVYTMGWYRQAPGKEREFVAAIDYGGSTYYADSVKGRFTISRDNAKNTVYLQMNSLKPEDTAVYYCASYYHGYWGQGTQVTVSS
notes: as for B1
B3: NY-ESO-1-VHH-9 (VHH)
VHH: QVQLQESGGGLVQAGGSLRLSCAASGYISYLNTMGWYRQAPGKEREFVATIGQGSSTYYADSVKGRFTISRDNAKNTVYLQMNSLKPEDTAVYYCADQLGYWGQGTQVTVSS
notes: as for B1
B4: NY-ESO-1-VHH-4 (VHH)
VHH: QVQLQESGGGLVQAGGSLRLSCAASGNIFYPQYMGWYRQAPGKEREFVAAISDGASTYYADSVKGRFTISRDNAKNTVYLQMNSLKPEDTAVYYCADLWYWGQGTQVTVSS
notes: as for B1

For this assay, the target named is T1, …-HLA A0201 complex (human, biotinylated with BirA (site not stated)).
T1 construct: Held on streptavidin in the ELISA and in SPR; also called NY-ESO-1 antigen; positive antigen NY-ESO-1
The experiment in a line: SPR (BIAcore), biotinylated pMHC on streptavidin-coupled CM5 chip, nanobody as analyte.
The term Kd denotes a measure of binding affinity in units of concentration. A low value points to tighter binding. B1 displayed a Kd of 96.6 nM. The molecule B2 came in with an equilibrium dissociation constant (Kd) of 68.1 nM. Consider B3, for which binding was put at a Kd of 1170 nM. In the case of B4, the dissociation constant Kd stood at 102 nM.
